According to the supplement of paper PMC10724198:
± gives the standard deviation of the averaged measurements.

Test system: Saccharomyces cerevisiae
Experiment: protein stability index of tFT-peptide fusion (C-terminal peptide) (PSI (0-1 scale)); higher = more stable (slower turnover)
Details: genetic background: wild type; temperature: 30 C
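Further: PSI is a weighted mean of sequencing reads over stability bins, variants kept only with over 10 reads, mCherry proximal and sfGFP distal, peptide attached via GGGS linker.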

Sequence	protein stability index
ELLASVSVSSRF	0.6276 ± 0.0044
WWFGGETGVGGR	0.712 ± 0.039
FLSAGLSILAAP	0.683 ± 0.043
GLPSHPAPPSTN	0.657 ± 0.11
PVLPPLLPLPCL	0.644 ± 0.044
YTRAGNDKIFWE	0.809 ± 0.0096
PLPPASPCLCSY	0.643 ± 0.049
DRREKAKNMTKG	0.67 ± 0.025
SAYASCFGSESL	0.675 ± 0.05
KIKKNKNKKKKS	0.686 ± 0.009
VLLATPFSAIFR	0.6907 ± 0.0057
SLSPLPCTVLRL	0.684 ± 0.05
GGGVRGGVLVLG	0.51 ± 0.03
KKENKSKKIINR	0.568 ± 0.028
RGPSSPTPRPAA	0.77 ± 0.13
RTRPALPSPPPH	0.725 ± 0.022
ISYYDVYLSFLF	0.745 ± 0.13
GWVREAVGFRGG	0.687 ± 0.028
RDLSEGRSPLGI	0.661 ± 0.081
LSAVHYNRAVFA	0.5141 ± 0.0049
SLPRYPRRASHS	0.757 ± 0.068
PSFPPLPLSTPP	0.762 ± 0.063
FGVGWGDGFFGV	0.716 ± 0.059
EFPRDLVFDWYG	0.857
CRGGWKCGQEKG	0.635 ± 0.014

Sequence	protein stability index
VMFACAGVETRR	0.745 ± 0.037
ARSAGITSPSKD	0.788 ± 0.12
TVQPGAVRFILF	0.703 ± 0.028
RARCFGGFCAIP	0.724 ± 0.088
SPPCPFPTPACP	0.7165 ± 0.002
CPGLYVRAYGHC	0.613 ± 0.049
PITFTSRYLLLE	0.697 ± 0.042
PPPPPTAPPPSR	0.733 ± 0.055
ESDLRFPGVPCI	0.696 ± 0.011
HICFPALKPGGA	0.6401 ± 0.0039
SLPPFPLHSFPV	0.694 ± 0.24
LCAETGVGPGLW	0.724 ± 0.016
EIEFRLKLGTGV	0.655 ± 0.04
NPSSKVIALWKI	0.556 ± 0.046
AFPLPPPPPPKP	0.708 ± 0.012
GAGGSAGARSAE	0.702 ± 0.03
SKTQRKQIIKKQ	0.638 ± 0.056
GATPRTAGRRPG	0.688 ± 0.038
GRGDNRKVDGEG	0.671 ± 0.061
FCGLWGVGGVAE	0.704 ± 0.025
PPILLPPPDASH	0.702 ± 0.025
DGVATLYGRDVE	0.646 ± 0.033
GGWAGLGAPGVS	0.697 ± 0.028
PPGPPPSSPPPP	0.73 ± 0.024
PPYPRRWAPLGP	0.6872 ± 0.0051

Sequence	protein stability index
VSFCRVLQSSQS	0.692 ± 0.021
TVLRMFPPRSIW	0.67 ± 0.046
LFLELSSCVGVF	0.62 ± 0.024
VARFRGGPVPSF	0.67 ± 0.045
EREGREGKGRER	0.777 ± 0.079
SRCSEPVGGGGA	0.704 ± 0.085
KKTDNGSYERGE	0.701 ± 0.018
CIITHSQNKLNT	0.724 ± 0.059
WYLRSFVVSTLQ	0.533 ± 0.065
PPYPCRRPPPPP	0.647 ± 0.033
VSLALYSSVSIC	0.5382 ± 0.0049
RSSCVRGVTLAL	0.695 ± 0.023
QSKANIVEEIWI	0.688 ± 0.02
SPPRSPPDFVPF	0.684 ± 0.0088
LRSIAVLPPSPF	0.695 ± 0.039
VCSVLFPFLPLP	0.7043 ± 0.0056
ILLYSPFGPPSS	0.673 ± 0.026
GAGRGGGRGRRW	0.661 ± 0.031
SPRFYSFRPSPP	0.695 ± 0.019
KEKIGIQIKKKR	0.675 ± 0.047
RARHDGWRHLYE	0.707 ± 0.055
RILSCGCVCFVM	0.702 ± 0.031
QLVCCAKCGAVG	0.665 ± 0.035
